Measurements taken from US11066455B2, “Tmem100 peptides and variants thereof and their use in treating or preventing diseases or conditions” (The Johns Hopkins University, priority 2014, dated 2021).

What was measured:
Type in all cases: cell-based
[1] = system: TRPA1; assay: Cell-attached single-channel recording in CHO cells, MO-induced activity (NPo); conditions: Vh=-60 mV; co-expressed with TRPA1 only (1:4) in CHO cells
Method: (§1) Recordings were made in cell-attached single-channel or whole-cell voltage clamp configurations at 22-24° C. from the somata of small-to-medium mouse DRG neurons (15-35 pF) or CHO cells. For whole-cell configuration, holding potential (Vh) is −60 mV. Data were acquired and analyzed using an Axopatch 200B amplifier and pCLAMP9.0 software (Molecular Devices, Sunnyvale, Calif.). Borosilicate pipettes (Sutter, Novato, Calif.) were pulled and polished to resistances of 3-5 MΩ (in whole-cell and single-channel pipette solutions). Access resistance (Rs) was compensated (40-80%) when appropriate up to the value 7-10 MΩ for whole-cell configuration. Whole-cell recording data were filtered at 0.5 kHz and sampled at 2 kHz. Single-channels currents were filtered with an 8-pole, low pass Bessel filter at 0.1 kHz and sampled at 0.5 kHz, since dwelling time (τ) of the TRPA1 and TRPV1 single-currents were >0.5 sec. Whole-cell recorded data were rejected when Rs changed >20% during recording, leak currents were >100 pA, or input resistance was <200 MΩ.
(§2) Single-channel unitary current (i) was determined from the best-fit Gaussian distribution of amplitude histograms. Single-channel activity was analyzed as NPo=I/i, where I is the mean total current in a patch and i is unitary current at this voltage. For single channel slope conductances, linear fitting was used separately for positive and negative holding potentials. The slope conductances presented in figures were determined from fitting negative hold potentials (from −60 to 0 mV). The single-channel recording data were analyzed with Clampfit 9 software. This has an “event detection analysis” function that analyzes current traces and determines the number of channels in the patch (N), how many sub-conductances are present, and what the main conductance is. In order to increase the accuracy of the Po measurement, only patches containing fewer than 3 channels were used. For patches containing both TRPA1 and TRPV1, only those with equal numbers of TRPA1 and TRPV1 were used. This was monitored in each recording by applying MO and then CAP.
(§3) Standard external solution (SES) for whole-cell patch recording contained (in mM): 140 NaCl, 5 KCl, 2 CaCl2, 1 MgCl2, 10 D-glucose and 10 HEPES, pH 7.4. Vehicle, which is 0.01% DMSO, was added to external solutions. The bath solution for single-channel recording (SES-SCh) of TRP currents consisted of (in mM): 100 K-gluconate, 4 KCl, 1 MgCl2, 1 EGTA, 10 D-glucose and 10 Hepes (pH 7.3). The standard pipette solution (SIS) for the whole-cell configurations contained (in mM): 140 KCl, 1 MgCl2, 1 CaCl2, 10 EGTA, 10 D-glucose, 10 HEPES, pH 7.3. […] The baseline activities of the cells were recorded for 1-2 min prior drug applications. […]

[2] = system: T1, TRPA1; assay: as above; conditions: Vh=-60 mV; co-expressed with TRPA1+TRPV1 (1:1:4) in CHO cells
T1 construct: MO (10 μM)-evoked Ca2+ influx; other: TRPA1+TRPV1+Tmem100-3Q (1:1:4) CHO cells; MO (10 μM)-gated whole-cell current density; other: Vh=-60 mV; TRPA1+TRPV1+Tmem100-3Q (1:1:4) CHO cells; MO (10 μM)-induced single-channel activity (NPo); co-expressed with TRPA1+TRPV1 (1:1:4) in CHO cells
Method: as §1, §2, §3

[3] = system: TRPA1-V1 complex; assay: FRET with TIRF microscopy of TRPV1-CFP and TRPA1-YFP in COS-7 cells; conditions: compared to cells expressing only TRPA1-V1
Excerpt: Expression vectors of pEYFP-TRPA1 (YFP on C-terminal part), pECFP-TRPV1 (CFP on C-terminal part), and pEYFP-N1 were transfected into COS-7 cells with FuGENE HD (Promega E2311), as previously described (Staruschenko et al., 2010). COS-7 cells were chosen since they have flat morphology and thus suitable for TIRF-FRET analysis. Moreover, previously it has been shown that CHO and COS cells express TRPA1 and TRPV1 to the same level (Staruschenko et al., 2010). Data from fixed cells were collected in separate facilities at University of Texas Health Science Center, San Antonio, and the Johns Hopkins University, respectively. […] Briefly, two days after transfection, the cells were fixed for 15 min with 4% paraformaldehyde in PBS and then imaged at the room temperature using total internal reflection fluorescence (TIRF) (also called evanescent-field) microscopy on an inverted Nikon Eclipse TE200U microscope equipped with a plain Apo TIRF 60× oil-immersion, high-resolution (1.45 NA) objective. […] Fluorescence images were collected and processed with a 16-bit, cooled charge-coupled device camera (Cascade 512F; Roper Scientific Inc.) interfaced to a PC running Metamorph software.
Each cell was photobleached by argon-ion laser (514 nm) at full power for 2 min. […] All images were analyzed in ImageJ. […]

[4] = system: TRPV1; assay: Cell-attached single-channel recording in CHO cells, CAP-induced activity (NPo); conditions: Vh=-60 mV
Method: as §1, §2, §3

[5] = co-expressed with TRPA1+TRPV1 (1:1:4) in CHO cells
[6] = co-expressed with TRPV1 only (1:4) in CHO cells

B1: Tmem100-3Q mutant (full-length, mouse) (protein)
chain: MTEESTKENLGAPKSPTPVTMEKNPKREVVVTTGPLVSEVQLMAATGGAELSCYRCIIPFAVVVFITGIVVTAVAYSFNSHGSIISIFGLVLLSSGLFLLASSALCWKVRQRNKKVQQQESQTALVVNQRCLFA
MO (10 μM)-induced single-channel activity (NPo) [1]: 1.05±0.14 | MO (10 μM)-induced single-channel activity (NPo) [2]: 0.16±0.06 | enhancement of the TRPA1-TRPV1 interaction (FRET efficiency) [3]: 43% | CAP (100 nM)-induced single-channel activity (NPo) [4, 5]: 1.08±0.17 | CAP (100 nM)-induced single-channel activity (NPo) [4, 6]: 0.73±0.12

B2: Tmem100: 134-amino acid two-transmembrane protein, regulator of TRPA1 (SEQ ID NO: 1/2), expressed in cells (protein, listed as Homo sapiens, listed as Mus musculus)
chain 1: MTEEPIKEILGAPKAHMAATMEKSPKSEVVITTVPLVSEIQLMAATGGTELSCYRCIIPFAVVVFIAGIVVTAVAYSFNSHGSIISIFGLVVLSSGLFLLASSALCWKVRQRSKKAKRRESQTALVANQRSLFA
chain 2: MTEESTKENLGAPKSPTPVTMEKNPKREVVVTTGPLVSEVQLMAATGGAELSCYRCIIPFAVVVFITGIVVTAVAYSFNSHGSIISIFGLVLLSSGLFLLASSALCWKVRQRNKKVKRRESQTALVVNQRCLFA
MO (10 μM)-induced single-channel activity (NPo) [1]: 0.64±0.18 | MO (10 μM)-induced single-channel activity (NPo) [2]: 1.05±0.14 | decrease of TRPA1-V1 FRET efficiency [3]: 34% | CAP (100 nM)-induced single-channel activity (NPo) [4, 5]: 0.82±0.14 | CAP (100 nM)-induced single-channel activity (NPo) [4, 6]: 0.45±0.1
